Columns and labels:
[1] = target: SARS-CoV-2 Delta Spike (14-1209, S2P) (SARS-CoV-2) (UniProt P0DTC2); assay: cryo-EM structure
[2] = target: SARS-CoV-2 Omicron BA.1 Spike (14-1209, S2P) (SARS-CoV-2) (UniProt P0DTC2); assay: cryo-EM structure

Substance | stoichiometry N [1] | stoichiometry N [2]
SARS-CoV-2 Delta Spike (14-1209, S2P) (from UniProt P0DTC2 14-1209) (natural protein) | 3 | –
SARS-CoV-2 Omicron BA.1 Spike (14-1209, S2P) (from UniProt P0DTC2 14-1209) (natural protein) | – | 3

Reference: publication PMC9852238
